According to patent publication US20060009379A1 (GOVERNMENT OF THE UNITED STATES OF AMERICAN AS REPRESENTED …, published 2006):

Molecular target: T1, GST-p53 fusion protein (UniProt P04637 1-393)
T1 construct: not shown: glutathione S-transferase (GST) fusion partner
Test: GST-p53 pull-down of HA-tagged protein from H1299 lysate, α-HA Western blot
Experimental: FIG. 6F is a digital image of mapping of p53-interacting region in nucleostemin by GST pull-down assay. […] The retained proteins (bound) were detected by α-HA Western blot and expressed as ratios to the input.
To map the interacting region between nucleostemin and p53, HA-tagged mutant proteins were expressed in H1299 cells and incubated with agarose-bound GST-p53 fusion protein in GST pull-down experiments. The amount of mutant proteins retained by GST-p53 fusion was measured by Western blot and presented as the ratio to the input proteins.

T1 sequence (P04637 whole entry, the tested form may be a part): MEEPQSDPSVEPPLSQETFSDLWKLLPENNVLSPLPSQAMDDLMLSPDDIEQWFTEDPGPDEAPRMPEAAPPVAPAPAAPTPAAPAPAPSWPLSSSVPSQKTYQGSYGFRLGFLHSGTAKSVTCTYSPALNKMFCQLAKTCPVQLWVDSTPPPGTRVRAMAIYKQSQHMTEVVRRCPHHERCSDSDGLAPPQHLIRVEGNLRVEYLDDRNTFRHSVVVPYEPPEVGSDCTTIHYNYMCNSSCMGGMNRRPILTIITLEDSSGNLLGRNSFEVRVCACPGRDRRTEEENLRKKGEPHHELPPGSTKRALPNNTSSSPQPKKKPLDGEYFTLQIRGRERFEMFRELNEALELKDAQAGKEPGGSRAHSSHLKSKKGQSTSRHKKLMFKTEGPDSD

Row | Binder | fold reduction of the amount bound, against wild-type nucleostemin | further results
1 | HA-tagged nucleostemin mutant dCC (deletion of the coiled-coil domain, codons 61-87) (other, not shown: HA (hemagglutinin) tag) MKRPKLKKASKRMTCHKRYKIQKKVREHHRKLRKEAKKRGHKKPKKDPGVPNSAPFKEALRKRKLEISPDDEQSNVETQEESDEPKIKKAKSGKQNPKKLHCQELKKVIEASDIVLEVLDARDPLGCRCPQVEEAVIQSGCKKLVLVLNKSDLVPKENLENWLTYLNKELPTVVFKASTNLKNRKKTFKIKKKVVPFQSKLCCGKEALWKLLGGFQQSCGKGVQVGVVGFPNVGKSSIINSLKQERICSVGVSMGLTRSMQIVPLDKQITIIDSPCFIISPCNSPAALALRSPASIEVLRPLEAASAILSQADSQQVVLKYTVPGYKDSLDFFTKLAQRRGLHQKGGSPNVESAAKLLWSEWTGASLGYYCHPPASWNHSPHFNENITAIMKRGFNLEELEKNNAHSIQVLKGPHLTNKILFRSSGLTNGILEEKDIPEESPKQTEDQQDGDDQEHVTGEKNAEISDVTPVEETREMSPGQSTASKPSDRSFILDKMSEEDDAYDFTTDYI | 1.5 fold | –
2 | HA-tagged nucleostemin mutant dA (deletion of the acidic domain, codons 460-503) (other, not shown: HA (hemagglutinin) tag) MKRPKLKKASKRMTCHKRYKIQKKVREHHRKLRKEAKKRGHKKPKKDPGVPNSAPFKEALLREAELRKQQLEELKQQQKLDRQKEQERKRKLEISPDDEQSNVETQEESDEPKIKKAKSGKQNPKKLHCQELKKVIEASDIVLEVLDARDPLGCRCPQVEEAVIQSGCKKLVLVLNKSDLVPKENLENWLTYLNKELPTVVFKASTNLKNRKKTFKIKKKVVPFQSKLCCGKEALWKLLGGFQQSCGKGVQVGVVGFPNVGKSSIINSLKQERICSVGVSMGLTRSMQIVPLDKQITIIDSPCFIISPCNSPAALALRSPASIEVLRPLEAASAILSQADSQQVVLKYTVPGYKDSLDFFTKLAQRRGLHQKGGSPNVESAAKLLWSEWTGASLGYYCHPPASWNHSPHFNENITAIMKRGFNLEELEKNNAHSIQVLKGPHLTNKILFRSSGLTNGILMSPGQSTASKPSDRSFILDKMSEEDDAYDFTTDYI | 1.5 fold | –
3 | HA-tagged nucleostemin mutant dB (deletion of the basic domain, codons 2-46) (other, not shown: HA (hemagglutinin) tag) MDPGVPNSAPFKEALLREAELRKQQLEELKQQQKLDRQKEQERKRKLEISPDDEQSNVETQEESDEPKIKKAKSGKQNPKKLHCQELKKVIEASDIVLEVLDARDPLGCRCPQVEEAVIQSGCKKLVLVLNKSDLVPKENLENWLTYLNKELPTVVFKASTNLKNRKKTFKIKKKVVPFQSKLCCGKEALWKLLGGFQQSCGKGVQVGVVGFPNVGKSSIINSLKQERICSVGVSMGLTRSMQIVPLDKQITIIDSPCFIISPCNSPAALALRSPASIEVLRPLEAASAILSQADSQQVVLKYTVPGYKDSLDFFTKLAQRRGLHQKGGSPNVESAAKLLWSEWTGASLGYYCHPPASWNHSPHFNENITAIMKRGFNLEELEKNNAHSIQVLKGPHLTNKILFRSSGLTNGILEEKDIPEESPKQTEDQQDGDDQEHVTGEKNAEISDVTPVEETREMSPGQSTASKPSDRSFILDKMSEEDDAYDFTTDYI | – | binding of nucleostemin to p53 (retained protein, ratio to input): 17%
4 | HA-tagged nucleostemin mutant dG4 (deletion of the G4 GTP-binding motif, codons 177-180) (other, not shown: HA (hemagglutinin) tag) MKRPKLKKASKRMTCHKRYKIQKKVREHHRKLRKEAKKRGHKKPKKDPGVPNSAPFKEALLREAELRKQQLEELKQQQKLDRQKEQERKRKLEISPDDEQSNVETQEESDEPKIKKAKSGKQNPKKLHCQELKKVIEASDIVLEVLDARDPLGCRCPQVEEAVIQSGCKKLVLVLNVPKENLENWLTYLNKELPTVVFKASTNLKNRKKTFKIKKKVVPFQSKLCCGKEALWKLLGGFQQSCGKGVQVGVVGFPNVGKSSIINSLKQERICSVGVSMGLTRSMQIVPLDKQITIIDSPCFIISPCNSPAALALRSPASIEVLRPLEAASAILSQADSQQVVLKYTVPGYKDSLDFFTKLAQRRGLHQKGGSPNVESAAKLLWSEWTGASLGYYCHPPASWNHSPHFNENITAIMKRGFNLEELEKNNAHSIQVLKGPHLTNKILFRSSGLTNGILEEKDIPEESPKQTEDQQDGDDQEHVTGEKNAEISDVTPVEETREMSPGQSTASKPSDRSFILDKMSEEDDAYDFTTDYI | – | fold increase of the amount bound, against wild-type nucleostemin: 1.5 fold
